Assay results: article PMC9124786, “A One-Step Electrochemical Aptasensor Based on Signal Amplification of Metallo Nanoenzyme Particles for Vascular Endothelial Growth Factor”

Target: VEGF165 (VEGF A165) (UniProt P15692-4 27-191)
Assay: electrochemical impedance spectroscopy (aptasensor); 10 pg/ml-1 ug/ml VEGF, 60 min; LOD 8.2 pg/ml (not a Kd); VEGF incubated 60 min (37 C in the time optimisation) on BSA-blocked aptamer/CME NP electrode, water wash; EIS in 0.1 M PBS pH 7.4 with 5 mM [Fe(CN)6]3-/4-
Conditions: protein: commercial; chain copies: 2; hairpin

Chain of VEGF165 (VEGF A165) (P15692 other isoform, or with tags, fused parts or gaps): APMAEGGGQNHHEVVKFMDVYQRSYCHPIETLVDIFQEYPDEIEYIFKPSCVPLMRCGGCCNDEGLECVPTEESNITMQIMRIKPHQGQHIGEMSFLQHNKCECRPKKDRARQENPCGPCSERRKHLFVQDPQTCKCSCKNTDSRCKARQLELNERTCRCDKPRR

Binder: AAAAAAAAAACCGTCTTCCAGACAAGAGTGCAGGGAAAAAGAAGACGG (structured_DNA, 5' carboxylic acid) [VEGF aptamer with 5' A10 spacer]
- binding result: binds
